# From patent US20250042991A1 (University of Texas, published 2025)
# Key:
# human leptin [1] = target: T1, human leptin (human, UniProt P41159 22-167); assay: ELISA titration on coated leptin, 4 parameter fit
# T1 construct: Bought recombinant protein coated on ELISA plates; also called Leptin protein; LEPTIN antigen
# Method: ELISA titration was used to determine the binding affinity of a panel of monoclonal antibodies to LEPTIN antigen. Binding constants (KD and/or EC 50) of a panel of monoclonal antibodies were estimated using the 4 parameter curve fitting with Prism GraphPad program. For Biacore analysis, all experiments were performed at 25° C. at a flow rate of 45 μl/min. An anti-human IgG Fc antibody (from ThermoFisher, at 50 μg/ml each in acetate buffer, pH 5.0) was immobilized onto a carboxymethyl dextran sensorchip (CM5) using amine coupling procedures based on instruction from the manufacturer. Purified rabbit/human chimeric antibody to be tested was diluted at a concentration of 5 μg/ml in 0.5% P20, HBS-EP buffer and injected on FC2 to reach 500 to 1000 RU. FC1 was used as the reference cell. Specific signals correspond to the difference of signals obtained on FC2 versus FC1. The analyte (recombinant human LEPTIN, apparent molecular weight 16 kDa on SDS-PAGE gel) was injected during 90 sec at series of concentration dilutions (100, 50, 25, 12.5, 6.25, and 3.13, 1.56 nM) in 0.5% P20, HBS-EP buffer. These concentrations were prepared from stock solution in 0.5% P20, HBS-EP. The dissociation phase of the analyte was monitored over a 30 minutes period. Running buffer was also injected under the same conditions as a double reference. After each running cycle, both flow cells were regenerated by injecting 20 to 45 μl of Glycine-HCl buffer pH 1.5. Binding KD on LEPTIN was calculated by koff/kₒₙ kinetic rate for each LEPTIN monoclonal antibodies (Table 3).
# human leptin [2] = target: T1, human leptin; assay: ELISA, human leptin coated on plate, 1:20 diluted culture supernatant
# Method: Binding of LEPTIN by monoclonal antibodies was first screened by ELISA using supernatants collected from the B cell cultures. Human or mouse LEPTIN protein (Sino Biologicals) was coated on a 96-well high binding plate over night at 4° C. in PBS. B cell culture supernatants (5 μl medium and 95 μl of PBS) were added at for binding to LEPTIN antigen coated on the plate. Bound antibody was detected using a secondary antibody against rabbit IgG conjugated with HRP and TMB substrate.
# T1 sequence (P41159 22-167 limits assumed): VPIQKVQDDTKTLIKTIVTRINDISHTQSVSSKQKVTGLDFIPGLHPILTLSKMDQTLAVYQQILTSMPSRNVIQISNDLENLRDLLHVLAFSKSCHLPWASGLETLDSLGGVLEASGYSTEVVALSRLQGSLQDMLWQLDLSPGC
Binder,EC50 (human leptin [1]) [nM],absorbance at 450 nM (human leptin [2]) [absorbance at 450 nM]
"hLept-2 (antibody, V domains shown, Expressed as full human IgG in HEK293 cells) VH: not shown VL: DIQLTQSPSSLSASVGDRVTITCRAGQSVSRYLNWFQQKPGKAPKLLIYTSSNLQSGVPSRFSASGSGTDFTLTISSLQPEDFATYYCQQTYSTPWTFGQGTKLEIK",1 to 500,2.57
"hLept-3 (antibody, V domains shown, Expressed as full human IgG in HEK293 cells; also called hLetp-3) VH: QVQLVQSGAEVKKPGSSVKVSCKASGGTFSSYAISWVRQAPGQGLEWMGGIIPIFGTANYAQKFQGRVTITADESTSTAYMELSSLRSEDTAVYYCARSQVPSSYYYGMDVWGQGTMVTVSS VL: QSVLTQPPSVSGAPGQRVTISCTGGNSNIGAGYHVHWYQQLPGAAPKLLIYGDTNRPSGVPDRFSGSQSGTSASLAITGLQADDEADYYCQSYDRSRGGWFFGGGTQLTVL",1 to 500,0.19
"hLept-5 (antibody, V domains shown, Expressed as full human IgG in HEK293 cells) VH: QVKLVEWSLSVVQPGRSLRLSCAASGFTFSSYAMHWVRQAPGKGLEWVAVISYDGSNKYYADSVKGRFTISRDNSKNTLYLQMNSLRAEDTAVYYCARGREYYYYMDVWGKGTTVSVSS VL: QSVLTQPPSVSVAPGKTARITCGGYNIARKSVHWYQQKPGQAPVLVMYNDNDRPSGIPERFSGSNSGNTATLTISRVEAGDEADYYCQVWDNSDYVFGTGTKVTVL",1 to 500,0.739
"hLept-6 (antibody, V domains shown, Expressed as full human IgG in HEK293 cells) VH: QVQLMQSGAEVKKPGASVKVSCKASGYTFTSYYMHWVRQAPGQGLEWMGIINPSGGSTSYAQKFQGRVTMTRDTSTSTVYMELSSLRSEDTAVYYCARGFGYGGKALDYWGQGTTVTVSS VL: DIQMTQSPPTLSASVGDRVTITCRASQNINSRLAWYQQKPGRAPKLLIYKASTLESGVPSRFSGSGSGTEFTLTISSLQPDDFATYYCQQFDKYSITFGGGTKMEIK",1 to 500,0.663
"hLept-1 (antibody, V domains shown, From a human scFv phage library, expressed as full human IgG in HEK293 cells) VH: QVQLQQLGPGLVKPSETLSLTCNVSGGSVSRGSHYWTWIRQPPGKGLEWIGYIHTDGSTNFNPSLKSRVTMSLDRSRNQFSLTLSSVTATDTAVYYCAREPGGALNFWGQGTLVTVSS VL: not shown",1 to 500,0.071
